In paper PMC9233711, “Wiskott-Aldrich syndrome protein forms nuclear condensates and regulates alternative splicing” (Nature Communications, 2022):

T1: recombinant WASP, full-length (1-502 a.a.) with a GST tag at the N-terminus (human, UniProt P42768 1-502)
T1 construct: Wiskott-Aldrich syndrome protein (WASP), human, full-length protein, 1-502 a.a; source: bought: Abnova (in vitro wheat germ expression system, purified by Glutathione Sepharose 4 Fast Flow); not shown: GST, N-terminal, kept
T1 sequence (looked up): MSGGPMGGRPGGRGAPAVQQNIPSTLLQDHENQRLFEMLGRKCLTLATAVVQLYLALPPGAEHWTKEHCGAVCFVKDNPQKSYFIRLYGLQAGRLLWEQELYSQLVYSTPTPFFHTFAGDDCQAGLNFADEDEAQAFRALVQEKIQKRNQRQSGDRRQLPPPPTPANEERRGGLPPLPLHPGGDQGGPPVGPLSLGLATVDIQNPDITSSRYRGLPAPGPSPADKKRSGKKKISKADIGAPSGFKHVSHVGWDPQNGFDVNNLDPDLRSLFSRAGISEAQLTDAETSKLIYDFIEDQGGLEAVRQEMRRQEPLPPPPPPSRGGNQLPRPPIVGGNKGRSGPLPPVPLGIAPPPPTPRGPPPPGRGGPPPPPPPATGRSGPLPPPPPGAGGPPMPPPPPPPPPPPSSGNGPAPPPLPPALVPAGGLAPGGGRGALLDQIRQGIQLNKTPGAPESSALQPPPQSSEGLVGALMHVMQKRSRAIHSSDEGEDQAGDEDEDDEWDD

T2: recombinant human full-length SRSF2, N-terminally 8X histidine- and SUMO-tagged and C-terminus Strep-tagged (human, UniProt Q01130 1-221, RED-tris-NTA dye on the His tag)
T2 chain: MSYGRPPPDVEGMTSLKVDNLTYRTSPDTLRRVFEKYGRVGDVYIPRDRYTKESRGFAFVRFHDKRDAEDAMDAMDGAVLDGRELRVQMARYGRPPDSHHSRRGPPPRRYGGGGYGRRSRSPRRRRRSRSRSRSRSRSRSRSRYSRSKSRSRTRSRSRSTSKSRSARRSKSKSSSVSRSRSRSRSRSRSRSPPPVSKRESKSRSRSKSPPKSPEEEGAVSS


Legend:
[1] = biological target: T1, recombinant WASP, full-length (1-502 …); test: MST; Monolith NT.115; SRSF2 labelled with RED-tris-NTA at 1 nM, WASP titrated 90 pM to 3 µM; 50 mM HEPES pH 7.5, 10 mM MgCl2, 100 mM KCl, 0.1 mg/ml BSA, 5% glycerol, 1 mM DTT; conditions: both partners purified
[2] = biological target: T2, recombinant human full-length SRSF2, …; test: MST

| binding result [1] | Kd [2] [nM] | Binder |
| --- | --- | --- |
| binds | – | recombinant human full-length SRSF2, N-terminally 8X histidine- and SUMO-tagged and C-terminus Strep-tagged (natural protein, UniProt Q01130 1-221, looked up, RED-tris-NTA dye on the His tag, No tag cleavage step is described in the purification, so SUMO and Strep were probably still on the protein; The MST methods call it His6-tagged, the expression methods 8X histidine; also called His6-tagged SRSF2; recombinant SRSF2; source: E. coli BL21 (DE3), purified (HisTrap HP, dialysis); not shown: His8, N-terminal, kept) MSYGRPPPDVEGMTSLKVDNLTYRTSPDTLRRVFEKYGRVGDVYIPRDRYTKESRGFAFVRFHDKRDAEDAMDAMDGAVLDGRELRVQMARYGRPPDSHHSRRGPPPRRYGGGGYGRRSRSPRRRRRSRSRSRSRSRSRSRSRYSRSKSRSRTRSRSRSTSKSRSARRSKSKSSSVSRSRSRSRSRSRSRSPPPVSKRESKSRSRSKSPPKSPEEEGAVSS |
| – | 211 | recombinant WASP, full-length (1-502 a.a.) with a GST tag at the N-terminus (natural protein) MSGGPMGGRPGGRGAPAVQQNIPSTLLQDHENQRLFEMLGRKCLTLATAVVQLYLALPPGAEHWTKEHCGAVCFVKDNPQKSYFIRLYGLQAGRLLWEQELYSQLVYSTPTPFFHTFAGDDCQAGLNFADEDEAQAFRALVQEKIQKRNQRQSGDRRQLPPPPTPANEERRGGLPPLPLHPGGDQGGPPVGPLSLGLATVDIQNPDITSSRYRGLPAPGPSPADKKRSGKKKISKADIGAPSGFKHVSHVGWDPQNGFDVNNLDPDLRSLFSRAGISEAQLTDAETSKLIYDFIEDQGGLEAVRQEMRRQEPLPPPPPPSRGGNQLPRPPIVGGNKGRSGPLPPVPLGIAPPPPTPRGPPPPGRGGPPPPPPPATGRSGPLPPPPPGAGGPPMPPPPPPPPPPPSSGNGPAPPPLPPALVPAGGLAPGGGRGALLDQIRQGIQLNKTPGAPESSALQPPPQSSEGLVGALMHVMQKRSRAIHSSDEGEDQAGDEDEDDEWDD |
